Reference: patent publication US20190358242A1, “COMPOSITIONS, KITS, AND METHODS TO INDUCE ACQUIRED CYTORESISTANCE USING STRESS PROTEIN INDUCERS” (FRED HUTCHINSON CANCER RESEARCH CENTER, priority 2017, published 2019)
Where “and” joins values, the source holds several entries; their conditions need not be identical. Equal entries are not always repeated.

Tests used:
HO-1 mRNA [1] = test: SnPP vs. SnMeP: renal cortical HO-1 mRNA induction (RT-PCR); assay type: in vivo, mice; details: 1 umole, 4 hrs post injection, n 3
Source text: (§1) FIG. 28. Comparison of SnPP vs. SnMeP effects on renal cortical HO-1 and haptoglobin mRNA induction 4 hrs post agent injection. Mice received either 1 umole tin protoporphyrin (SnPP), tin mesoporphyrin (SnMeP), or vehicle (n, 3 each) and 4 hrs renal cortical RNA was extracted and subjected to RT-PCR.

haptoglobin mRNA = test: SnPP vs. SnMeP: renal cortical haptoglobin mRNA induction (RT-PCR); assay type: in vivo, mice; details: 1 umole, 4 hrs post injection, n 3
Source text: as §1

HO-1 protein [2] = test: Tin mesoporphyrin: renal cortical and plasma HO-1 protein (ELISA); assay type: in vivo, mice
Source text: FIG. 29. Tin mesoporphryin effects on renal cortical and plasma HO-1 protein levels at 4 and 18 hrs post 1 umole injection. By 4 hrs and 18 hrs post Sn mesoporphyrin injection, an approximate 3 fold and 5 fold increases in renal cortical HO-1 levels over baseline (BL) were observed, as detected by ELISA. Plasma HO-1 levels rose ˜15 fold by 18 hrs post injection (n, 3-4 per group).

haptoglobin [3] = test: Tin mesoporphyrin: renal cortical and plasma haptoglobin levels; assay type: in vivo, mice; details: 4 and 18 hrs post 1 umole injection
[4] = test system: bilateral renal ischemic injury; test: 22 min bilateral renal ischemic injury after mesoporphyrin pre-treatment; assay type: in vivo, mice; details: 1 umole 18 hrs before 22 min bilateral ischemic injury
Procedure: FIG. 31. Tin mesoporphyrin pre-treatment mitigates renal ischemic injury. Mice received either 1 umole of Sn mesoporphyrin (MeP; n, 3) or vehicle (n,4) and 18 hrs later they were all subjected to 22 min of bilateral ischemic injury.
Protection against acute kidney injury. Mice are treated with MesP alone (0.1-20.5 umoles), FeS alone (1 mg), MesP+FeS, or vehicle injection. Eighteen hrs post injections, the mice are anesthetized with pentobarbital. The abdominal cavities are opened. The renal pedicles are identified, and both are occluded with microvascular clamps. Body temperature are maintained at 36-37° C. throughout. Following 22 minutes of bilateral renal ischemia, the clamps are removed, uniform reperfusion are confirmed by the loss of tissue cyanosis, and then the abdominal cavities are closed in two layers with silk suture. Eighteen hrs later, the mice are re-anesthetized, the abdominal cavities are re-opened, and terminal blood samples are obtained from the vena cava. AKI severity are determined by degrees of BUN and plasma creatinine increases.

HO-1 mRNA [5] = test: Renal HO-1 mRNA (RT-PCR, HO-1/GAPDH) after IV myoglobin, SnPP or both; assay type: in vivo, CD-1 mice
Source text: (§2) The Glycerol Model of AKI. This is a widely used model of rhabdomyolysis-induced AKI that has been employed worldwide for 50 years. The model was used to test whether prophylactic interventions confer protection against AKI. Basically, the protocol is as follows: Male CD-1 mice (35-45 grams), obtained from Charles River Laboratories, Wilmington, Mass. were studied. Mice were maintained under standard vivarium conditions and generally housed for 1-3 weeks prior to study. The mice were placed in a cylindrical restraining cage, and then were given a tail vein injection of the test substances (see below) or test substance vehicle. The mice were then returned to their cages. Eighteen hours (hrs) later, the mice were briefly anesthetized by isoflurane inhalation, and given an intramuscular injection of hypertonic (50%) glycerol in a dose of 9 ml/Kg body weight. The dose is divided in two, with half injected into the muscle of each of the hind limbs. The mice were then returned to their cages. Eighteen hrs later, the mice were deeply anesthetized with pentobarbital (50-100 mg/Kg), the abdominal cavity was opened through a midline abdominal incision, a blood sample was obtained from the abdominal vena cava and the kidneys were resected. A kidney cross section was obtained and fixed in formalin for subsequent histologic analysis. The terminal blood samples were analyzed for BUN and creatinine, using commercially available assay kits. The remaining kidney tissue was subjected to cortical dissection, and the cortical tissues were then extracted for protein and RNA. The protein samples were saved for analysis of HO-1 levels, and the RNA samples were subjected to RT-PCR to quantify HO-1 mRNA as well as levels of other stress gene mRNAs (e.g. NGAL, haptoglobin, hemopexin, hepicidin).
(§3) Myoglobin+SnPP: To 5 mg of dry myoglobin was added 0.9 ml of PBS+0.1 ml of a stock SnPP solution (50 umole/ml). The resulting final concentrations were 5 mg/ml myoglobin+5 umoles/ml of SnPP. The tail vein was injected with 200 ul of this solution, which equals 1 mg myoglobin+1 umole SnPP. […]
[…] To confirm that the myoglobin+SnPP has a synergistic effect in inducing HO-1 mRNA and HO-1 protein levels, each of the above combinations have been administered alone via tail vein injection. […] For additional information regarding methods, see Zager et al., Am J Physiol Renal Physiol. 2014 Jul. 30. Pii.

HO-1 protein [6] = test: Renal cortex HO-1 protein (ELISA) after IV myoglobin, SnPP or both; assay type: in vivo, CD-1 mice; details: 4 hr IV; 1 mg myoglobin, 1 μmole SnPP
Source text: as §2, §3
Four hr post myoglobin vs myoglobin+SnPP vs SnPP alone experiments. To confirm that the myoglobin+SnPP has a synergistic effect in inducing HO-1 mRNA and HO-1 protein levels, each of the above combinations have been administered alone via tail vein injection. Four hrs later, the mice were sacrificed as noted above and the kidneys were harvested for assessment of HO-1 mRNA and protein levels. For additional information regarding methods, see Zager et al., Am J Physiol Renal Physiol. 2014 Jul. 30. Pii.
Given that it is just 4 hrs post injection, the mRNA increases are greater than the protein increases as protein synthesis must follow the mRNA induction-requiring more time.

haptoglobin [7] = test: Haptoglobin protein expression after SQ injection of myoglobin with or without PEG; assay type: in vivo, mice; details: 4 hour time point after SQ injection
Procedure: Myoglobin+PEG: To a stock solution of 20 mg/ml Mgb in PBS was added 100 mg/ml of PEG-6000; […]. This was administered as a subcutaneous injection in the dorsal neck (250 ul total injection). For combined Mgb/PEG+SnPP, SnPP was added to the above in a concentration of 3 mg/ml.

[8] = parameters: species or system mice; details: mouse, in vivo, iv
HK-2 cells = test: HK-2 cell injury by MTT assay; assay type: cell-based; details: 10 mg/mL, 18 hr incubation
Procedure: HK-2 cells (a proximal tubule cell line derived from normal human kidney) were incubated in keratinocyte serum free medium either under normal (control) conditions or in the presence of 10 mg/mL horse skeletal muscle myoglobin or nitrited myoglobin (produced by equimolar Na nitrite addition to 10 mg/ml myoglobin). After 18 hr incubations, the severity of cell injury (% cell death) was assessed by MTT assay. Myoglobin induced 40% cell death (40% decrease in MTT cell uptake), compared to control incubated cells. Nitrite binding to myoglobin reduced cell death by 75%. Thus, nitrite binding is able to reduce myoglobin's cytotoxic effects.

HO-1 protein [9] = test: Renal cortex HO-1 protein (ELISA) after IV myoglobin, SnPP or both; assay type: in vivo, CD-1 mice; details: overnight (roughly 18 hrs) post IV; 1 mg myoglobin, 1 μmole SnPP
[10] = overnight (roughly 18 hrs) post IV, 1 mg myoglobin, 1 μmole SnPP

| Molecule | Renal cortical HO-1 mRNA induction (HO-1 mRNA [1]) | Renal cortical haptoglobin mRNA induction (haptoglobin mRNA) | Increase in renal cortical HO-1 levels over baseline (HO-1 protein [2]; 4 hrs post 1 umole injection) [fold] | Increase in renal cortical HO-1 levels over baseline (HO-1 protein [2]; 18 hrs post 1 umole injection) [fold] | Rise in plasma HO-1 levels (HO-1 protein [2]; 18 hrs post 1 umole injection) [fold] | Renal cortical and plasma haptoglobin levels (haptoglobin [3]) | Renal ischemic damage (BUN and plasma creatinine concentrations) [4] | HO-1/GAPDH mRNA, Average (HO-1 mRNA [5]; kidney, 4 hr post IV injection) | HO-1/GAPDH mRNA, individual mice (HO-1 mRNA [5]; kidney, 4 hr post IV injection) | HO-1/GAPDH mRNA, Average (HO-1 mRNA [5]; [10]) | HO-1/GAPDH mRNA, individual subjects (HO-1 mRNA [5]; [10]) | Cortex HO-1 protein (ELISA), Average (HO-1 protein [6]) [ng HO-1/mg protein] | Cortex HO-1 protein (ELISA), individual mice (HO-1 protein [6]) | Haptoglobin protein expression (haptoglobin [7]) [ng/mg ng/mg protein] | Plasma LDH, Average [8] [Absorbance U LDH/ml] | Cell death (decrease in MTT cell uptake) vs control incubated cells (HK-2 cells) [%] | HO-1 protein induction, Average (HO-1 protein [9]) | HO-1 protein induction, individual subjects (HO-1 protein [9]) |
| --- | --- | --- | --- | --- | --- | --- | --- | --- | --- | --- | --- | --- | --- | --- | --- | --- | --- | --- |
| tin mesoporphyrin [SnMeP] | raised | raised | ~3 | ~5 | ~15 | stepwise increases | lessening of ischemic damage | – | – | – | – | – | – | – | – | – | – | – |
| myoglobin (protein, UniProt P68082 2-154, looked up, Lyophilized horse skeletal muscle (myoglobin) (Sigma Chemicals), a heme protein) Myoglobin: GLSDGEWQQVLNVWGKVEADIAGHGQEVLIRLFTGHPETLEKFDKFKHLKTEAEMKASEDLKKHGTVVLTALGGILKKKGHHEAELKPLAQSHATKHKIPIKYLEFISDAIIHVLHSKHPGDFGADAQGAMTKALELFRNDIAAKYKELGFQG | – | – | – | – | – | – | – | 3.93 | 7.78 and 2.93 and 2.58 and 2.41 | 0.58 | 0.71 and 0.53 and 0.51 | 45.4 | 40.7 ng HO-1/mg protein and 40.2 ng HO-1/mg protein and 64.7 ng HO-1/mg protein and 36.0 ng HO-1/mg protein | 32.7 ± 6.3 | 4.47 | 40 | 36.7 | 50.6 and 34.9 and 24.6 |
